Measurements: paper PMC3557450
pKd: −log10 of the molar value.

Target: soluble recombinant pMHC II I-E^d/λ2^315 (not stated | mouse)
Assay: SPR

| pKd | Substance |
| --- | --- |
| 5.15 | soluble scTCR Vαβ 4B2A1 mutant PRS (L115P^linker/K199R^Vβ/L214S^Vβ) |
| 5.24 | soluble scTCR Vαβ 4B2A1 mutant PS (L115P^linker/L214S^Vβ) |
